Test results as given in patent publication US20120121576A1 (ACCELERON PHARMA, published 2012).

Legend:
[1] = target: ActRIIA expressed by A204 human rhabdomyosarcoma cells (human, UniProt P27037 20-513); assay: cell-based or functional assay
[2] = target: T1, ActRIIA-Fc (ActRIIA-mFc, dimeric protein) (human, UniProt P27037 20-135); assay: SPR (BIACORE); Ab-14E1 captured by immobilized anti-mFc IgG, ActRIIA-Fc as analyte
From the text: (§1) FIG. 9 depicts the kinetics of ActRIIA-Fc binding to Ab-14E1 as determined by BIACORE™-based analysis. A. Ab-14E1 was captured on a chip with covalently immobilized anti-mFC IgG and then exposed to ActRIIA-Fc at different concentrations. […] RU, relative units.

[3] = target: T2, monomeric ActRIIA tagged with histidine (ActRIIA-His) (human, UniProt P27037 20-135); assay: SPR (BIACORE)
T2 construct: also called monomeric extracellular domain of ActRIIA tagged with histidine

[4] = target: T1, ActRIIA-Fc (ActRIIA-mFc, dimeric …); assay: SPR (BIACORE): Ab-14E1 captured on a CM5 chip by immobilized anti-mFc IgG, ActRIIA-mFc injected at different concentrations, nonlinear regression
From the text: as §1

T1 sequence (P27037 20-135 limits assumed): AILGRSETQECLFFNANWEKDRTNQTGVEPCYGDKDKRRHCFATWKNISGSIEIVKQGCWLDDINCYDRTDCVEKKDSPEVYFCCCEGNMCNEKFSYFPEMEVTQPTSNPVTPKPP
T2 sequence (P27037 other isoform, or with tags, fused parts or gaps limits assumed): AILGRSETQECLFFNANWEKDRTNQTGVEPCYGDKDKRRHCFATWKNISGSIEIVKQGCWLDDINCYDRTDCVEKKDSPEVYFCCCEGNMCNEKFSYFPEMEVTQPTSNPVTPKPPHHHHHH
Sequence of ActRIIA expressed by A204 human rhabdomyosarcoma cells (P27037 20-513 limits assumed): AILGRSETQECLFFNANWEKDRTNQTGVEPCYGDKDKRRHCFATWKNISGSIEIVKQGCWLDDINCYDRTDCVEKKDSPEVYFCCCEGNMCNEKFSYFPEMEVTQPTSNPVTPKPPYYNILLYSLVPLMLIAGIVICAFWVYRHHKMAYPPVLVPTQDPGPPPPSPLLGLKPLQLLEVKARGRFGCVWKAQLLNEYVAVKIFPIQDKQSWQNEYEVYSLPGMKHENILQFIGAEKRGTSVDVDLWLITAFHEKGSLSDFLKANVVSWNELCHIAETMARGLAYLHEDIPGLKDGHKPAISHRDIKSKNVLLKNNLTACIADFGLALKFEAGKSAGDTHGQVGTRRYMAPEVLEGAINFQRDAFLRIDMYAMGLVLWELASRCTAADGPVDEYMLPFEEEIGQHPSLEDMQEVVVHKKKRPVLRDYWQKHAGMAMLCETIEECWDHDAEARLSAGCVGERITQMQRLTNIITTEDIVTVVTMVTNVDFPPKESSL

B1: Ab-14E1 (antibody 14E1; hybridoma subclone 14E1.H8.H1) (antibody, V domains shown)
VH: DVQLQESGPGLVKPSQSLSLTCSVTGYSITSGYYWNWIRQFPGNKLEWMGYISYDGSNNYNPSLINRISITRDTSKNQFFLKLNSVTTEDTATYFCASYAYRNDVRFAYWGQGTLVTVSA
VL: DIQMTQTTSSLSASLGDRVTISCRASQDISNFLNWYQQKPDGTVKLLIYFTSRLHSGVPSRFSGSGSGTDYSLTITNLEQEDIATYFCQQGNTLPWTFGGGTKLEIK
For B1, the “IC50 of inhibition of activin A-stimulated reporter gene expression (pGL3(CAGA)12 luciferase) in A204 cells” value [1] was 57.1 ng/ml, the Kd [2] was roughly 12 pM and the koff [2] was roughly 1e-06 s⁻¹. The “fold lower affinity than for ActRIIA-mFc” value [3] was 10 fold and the kon [4] was 86000 M⁻¹ s⁻¹.
